According to paper PMC6566870, “Influence of Chemokine N-Terminal Modification on Biased Agonism at the Chemokine Receptor CCR1” (International Journal of Molecular Sciences, 2019):
Values belong to the binder of their own block, whether it stands above or below them.

How the values were obtained:
[1] = biological target: T1, N-terminally His6-tagged cMyc-tagged human CCR1 (human, UniProt P32246 1-355); assay: radioligand binding; competitive displacement of 50 pM 125I-CCL3 from membranes of Flp-In T-REx 293 cells expressing CCR1; 2 h at 37 °C; two sets of experiments (Table 1, Table 3); conditions: one partner purified
T1 construct: C-C chemokine receptor 1 (CCR1), human; stably expressed in Flp-In T-REx 293 cells; also called chemokine receptor 1; source: Flp-In T-REx 293 cells, stably expressed; not shown: His6, N-terminal, kept; cMyc, N-terminal, kept
T1 sequence (looked up): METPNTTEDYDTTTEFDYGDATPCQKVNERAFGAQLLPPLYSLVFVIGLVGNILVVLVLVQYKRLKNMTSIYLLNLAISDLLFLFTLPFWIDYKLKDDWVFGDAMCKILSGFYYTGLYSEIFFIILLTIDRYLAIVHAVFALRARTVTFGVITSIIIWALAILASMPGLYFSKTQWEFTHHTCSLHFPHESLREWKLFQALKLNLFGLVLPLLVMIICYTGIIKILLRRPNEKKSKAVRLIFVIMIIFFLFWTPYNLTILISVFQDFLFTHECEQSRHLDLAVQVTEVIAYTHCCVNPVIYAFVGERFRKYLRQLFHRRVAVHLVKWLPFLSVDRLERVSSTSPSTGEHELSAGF

[2] = biological target: T1, N-terminally His6-tagged cMyc-tagged …; assay: cell-based or functional assay
[3] = biological target: T1, N-terminally His6-tagged cMyc-tagged …; assay: cell-based or functional assay; remark: listed apart in the source
[4] = biological target: T1, N-terminally His6-tagged cMyc-tagged …; assay: radioligand binding; competitive displacement of 50 pM 125I-CCL3 from membranes of Flp-In T-REx 293 cells expressing CCR1; 2 h at 37 °C; two sets of experiments (Table 1, Table 3); conditions: one partner purified; remark: listed apart in the source

- IC50 [1]: 2.3 nM
- pIC50 [1]: 8.6 -log M
- ERK1/2 phosphorylation, EC50 [2]: 65.5 nM
- ERK1/2 phosphorylation, pEC50 [2]: 7.2 -log M
- G protein activation (Gαi1, BRET), EC50 [2]: 30 nM
- G protein activation (Gαi1, BRET), pEC50 [2]: 7.5 -log M
- inhibition of forskolin-induced cAMP production, EC50 [2]: 48 nM
- inhibition of forskolin-induced cAMP production, pEC50 [2]: 7.3 -log M
B1: CCL8 (Lys-46 allele, Pro-8→Ala) (ligand, human, UniProt P80075 24-99, looked up)
chain: QPDSVSIAITCCFNVINRKIPIQRLESYTRITNIQCPKEAVIFKTKRGKEVCADPKERWVRDSMKHLDQIFQNLKP
notes: CCL8 (MCP-2), human, Lys-46 allele, with Pro-8→Ala to make the protein monomeric; N-terminal region of ten residues before the CC motif; also called MCP-2; not shown: His6, N-terminal, cleaved

- Gαi2 activation (BRET), EC50 [3]: 26.4 nM
- Gαi2 activation (BRET), pEC50 [3]: 7.6 -log M
- IC50 [1]: 0.33 nM
- pIC50 [1]: 9.5 -log M
- IC50 [4]: 1.2 nM
- pIC50 [4]: 8.9 -log M
- ERK1/2 phosphorylation, EC50 [2]: 9.6 nM
- ERK1/2 phosphorylation, pEC50 [2]: 8 -log M
- G protein activation (Gαi1, BRET), EC50 [2]: 14 nM
- G protein activation (Gαi1, BRET), pEC50 [2]: 7.9 -log M
- inhibition of forskolin-induced cAMP production, EC50 [2]: 9.5 nM
- inhibition of forskolin-induced cAMP production, pEC50 [2]: 8 -log M
B2: CCL7 (ligand)
chain: not shown
notes: CCL7 (MCP-3), human, wild type; N-terminal region of ten residues before the CC motif; also called monocyte chemoattractant protein-3; MCP-3; not shown: His6, N-terminal, cleaved
